Assay [1] deals with T1, wild-type human KIR3DL2 polypeptide (allele *002) (human, UniProt P43630 22-455).
T1 construct: also called WTaKIR3DL2; unmutated wild type KIR3DL2
In words: binding to HEK-293T cells transfected with wild-type KIR3DL2.

In assay [2] the target is T2, KIR3DL2 mutant M12 (I196A; L199A; N285A; S286A) (human, UniProt P43630 22-455).
T2 construct: On transfected HEK-293T cells; also called Mutant 12; Number 12
Briefly: binding to HEK-293T cells transfected with KIR3DL2 mutant.

Assay [3] has as its target T3, KIR3DL2 mutant M13 (T212A; N218A) (human, UniProt P43630 22-455).
T3 construct: On transfected HEK-293T cells; also called Number 13
The description is as above.

Assay [4] addresses T4, KIR3DL2 mutant M17 (P249A) (human, UniProt P43630 22-455).
T4 construct: On transfected HEK-293T cells; also called Mutant 17; Number 17
The description is as above.

Assay [5] concerns the target T5, KIR3DL2 mutant M18 (A278H; L279A; C281A; V282A) (human, UniProt P43630 22-455).
T5 construct: On transfected HEK-293T cells; also called Number 18
Described as above.

Assay [6] addresses T6, KIR3DL2 mutant M19 (A278H; L279S; V282E) (human, UniProt P43630 22-455).
T6 construct: On transfected HEK-293T cells; also called Number 19
Described as above.

Assay [7] has as its target T7, KIR3DL2 mutant M21 (C281Y; C315P) (human, UniProt P43630 22-455).
T7 construct: On transfected HEK-293T cells; also called Number 21
Described as above.

For assay [8], the target named is T8, KIR3DL2 mutant M14 (W226A) (human, UniProt P43630 22-455).
T8 construct: On transfected HEK-293T cells; also called Mutant 14; Number 14
Briefly: binding to HEK-293T cells transfected with KIR3DL2 mutant; '-' = substantially complete loss of binding.

Assay [9] concerns the target T9, KIR3DL2 mutant M3 (R32H; G33R) (human, UniProt P43630 22-455).
T9 construct: On transfected HEK-293T cells; also called Mutant 3; Number 3
In words: binding to HEK-293T cells transfected with KIR3DL2 mutant.

Assay [10] has as its target T10, KIR3DL2 mutant M4 (S45I; V47I) (human, UniProt P43630 22-455).
T10 construct: On transfected HEK-293T cells; also called Number 4
The assay is described as above.

Assay [11] deals with T11, KIR3DL2 mutant M6 (R78H; L82P) (human, UniProt P43630 22-455).
T11 construct: On transfected HEK-293T cells; also called Mutant 6; Number 6
Described as above.

Assay [12] addresses T12, KIR3DL2 mutant M1 + 2A1 (F50A; R53S) (human, UniProt P43630 22-455).
T12 construct: On transfected HEK-293T cells; also called Number 33 (1 + 2 A1)
The assay is described as above.

The target of assay [13] is T13, KIR3DL2 mutant M1 + 2A3 (P14S; S15A; H23S) (human, UniProt P43630 22-455).
T13 construct: On transfected HEK-293T cells; also called mutant 2A3; Number 35 (1 + 2 A3)
Described as above.

Assay [14] addresses T14, KIR3DL2 mutant M1 (R13W; A25T; Q27R) (human, UniProt P43630 22-455).
T14 construct: On transfected HEK-293T cells; also called Mutant 1; Number 1
In words: binding to HEK-293T cells transfected with KIR3DL2 mutant; '-' = substantially complete loss of binding.

In assay [15] the target is T15, KIR3DL2 mutant M2 (I60N; G62S) (human, UniProt P43630 22-455).
T15 construct: On transfected HEK-293T cells; also called Mutant 2; Number 2
The assay is described as above.

The target in assay [16] is T16, KIR3DL2 mutant M1 + 2 (R13W; A25T; Q27R; I60N; G62S) (human, UniProt P43630 22-455).
T16 construct: On transfected HEK-293T cells; also called Number 30 (1 + 2)
The description is as above.

For assay [17], the target named is T14, KIR3DL2 mutant M1 (R13W; A25T; Q27R). Briefly: binding to HEK-293T cells transfected with KIR3DL2 mutant.
The target in assay [18] is T15, KIR3DL2 mutant M2 (I60N; G62S). The assay is described as above.
Assay [19] concerns the target T17, KIR3DL2 mutant M5 (P66T) (human, UniProt P43630 22-455).
T17 construct: On transfected HEK-293T cells; also called Number 5
The description is as above.

Assay [20] concerns the target T18, KIR3DL2 mutant M1 + 2A5 (S140Q) (human, UniProt P43630 22-455).
T18 construct: On transfected HEK-293T cells; also called Number 37 (1 + 2 A5)
The assay is described as above.

Assay [21] concerns the target T16, KIR3DL2 mutant M1 + 2 (R13W; A25T; …). The assay is described as above.
Assay [22] addresses T19, KIR3DL2 mutant MD0/HLA1 (F9S; S11A) (human, UniProt P43630 22-455).
T19 construct: On transfected HEK-293T cells; also called Number 31 (DO-HLA1)
Described as above.

The target of assay [23] is T20, KIR3DL2 mutant MD0/HLA2 (H29S; F34A) (human, UniProt P43630 22-455).
T20 construct: On transfected HEK-293T cells; also called Number 32 (DO-HLA2)
The assay is described as above.

In assay [24] the target is T13, KIR3DL2 mutant M1 + 2A3 (P14S; S15A; …). Briefly: binding to HEK-293T cells transfected with KIR3DL2 mutant; '-' = substantially complete loss of binding.

The text below walks through data of US20150232556A1 (INNATE PHARMA, published 2015).

Positions count from the first letter of the chain named.

B1: antibody 20E9 (antibody, V domains shown)
VH: QVQLQQSGAEVARPGASVKLSCKSSGFTFTTYWMQWVKQRPGQGLEWIGAIYPGDGDTRYTQKFKGKATLTADKSSITAYMQLSSLASEDSAVYYCARRGDYGNYGMDYWGQGTSVTVSS
VL: DVLMTQTPLSLPVSLGDQASISCRSSQSIVHSNGNTYLEWYLQKPGQSPKLLIYKVSNHFSGVPDRFSGSGSGTDFTLKISRVEAEDLGVYYCFQGSHVPPTFGGGTKLEIK
notes: Parental murine monoclonal antibody
As for B1, the binding result in assay [1], in [2], in assay [3], in assay [4], in [5] and in [6] was “binds” in each case. For the same molecule, the figures for the binding result in assay [7] and in assay [8] were “binds” and “no binding”, respectively.

B2: antibody 1C3 (antibody, V domains shown)
VH: QVQLQQSGAELARPGASVKLSCKASGYTFTSYWMQWVKQRPGQGLEWIGAIYPGDGDTRYTQKFKGKATLTADKSSSTAYMQLSSLASEDSAVYYCARRYDGYYHFDYWGQGTTLTVS
VL: DIVMTQSPSSLAVTAGEKVTMSCKSSQSLLWSVNQKNYLSWYQQKQRQPPKLLIYGASIRESWVPDRFTGSGSGTDFTLTISNVHAEDLAVYYCQHNHGSFLPLTFGSGTKLEIK
notes: Parental murine monoclonal antibody; also called 1C3 MAb
B2: the binding result in [1], in assay [2], in [3], in assay [4], in assay [5] and in assay [6] was “binds” each time. Further, the results for the binding result in [7] and in [8] were “binds” and “no binding”, respectively.

B3: antibody 13H1 (antibody, V domains shown)
VH: EVQLQQSGPELVKPGASMKISCKASHYSFIGYTMNWVKQRHGKNLEWIGLINPYNGDTTYNQKFKGKASLTVDKSSSTAYMEILSLTSEDSAVYYCARENWGYPYAMDYWGQGTSVTVS
VL: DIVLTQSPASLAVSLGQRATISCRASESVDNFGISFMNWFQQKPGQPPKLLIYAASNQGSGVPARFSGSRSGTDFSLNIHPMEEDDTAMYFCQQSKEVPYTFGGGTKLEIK
notes: as for B1
With B3, the binding result is given as “binds” in assay [9]; “binds” in [10]; “binds” in [11]; “binds” in assay [12]; “binds” in assay [13]; “no binding” in [14]. Besides, the binding result in assay [15] and in assay [16] was “no binding” each time.

B4: antibody 1E2 (antibody, V domains shown)
VH: QVQLQQSGAELVRPGVSVKISCKGSGYTFTDYAMNWVKQSHAKSLEWIGVISTYYGDANYNQKFKGKATMTVDKSSSTAYMELARLTSEDSAIYYCALIYYDYDGSYWGQGTTLTVS
VL: DVVMTQTPLSLPVSLGDQASISCRSSQSLVHSNGNTYLHWYLQKPGQSPKLLIYKVSNRFSGVPDRFSGSGSGTDFTLKISRVEAEDLGVYFCSQSTHVPPYTFGGGTKLEIK
notes: as for B1
B4: the binding result in assay [1], in [17], in assay [18], in [9], in [10] and in assay [19] was “binds” in each case. For the same molecule, the binding result in assay [11], in assay [12], in [20], in assay [21], in assay [22] and in assay [23] was “binds” throughout. For the same molecule, in assay [24], the binding result is reported as “no binding”.

B5: antibody 10F6 (antibody, V domains shown)
VH: QIQLVQSGPELKKPGETVRISCKASGYTFTIAGMQWVQKMPGKGLKWIGWINTHSGVPKYAEDFKGRFAFSLETSANIAYLQISNLKNEDTATYFCARGGDEGVMDYWGQGTSVTVS
VL: DIVMTQSHKFMSTSVGDRVSITCKASQDVSTAVAWYHQKPGQSPKLLIYWASTRHTGVPDRFSGSGSGTDYTLTISALQAEDLALYYCQQHYNTPWTFGGGTKLEIK
notes: as for B1
In the case of B5, the binding result in assay [1], in assay [17], in [9], in assay [10], in assay [19] and in assay [11] was “binds” each time. Further, the binding result is given as “binds” in assay [12]; “binds” in assay [20]; “binds” in assay [22]; “binds” in assay [23]; “no binding” in assay [15]; “no binding” in assay [16].

B6: antibody 2B12 (antibody, V domains shown)
VH: B5 VH with I31T, M40T, T53S, N77S, I78T, N85T
VL: B5 VL with V15L, I21F, H37Q, A51T, S63T, A77S, L78V, N93S
notes: as for B1
Consider B6, for which the binding result in [1], in assay [17], in [9], in assay [10], in assay [19] and in assay [11] was “binds” each time. The binding result in [12] is “binds”; in assay [20] it was “binds”; in assay [22], “binds”; in [23] it was “binds”; in assay [15], “no binding”; in assay [16] it was “no binding”.
